Assay results as given in the nanobody polyreactivity screen of Harvey et al. (2022).

Test: yeast display, Sf9 membrane polyspecificity reagent, FACS + sequencing; frameworks hold sequencing errors
In short: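 A synthetic nanobody library was expressed on Saccharomyces cerevisiae BJ5465 by galactose induction for 36–48 hours. The library was stained for 1 hour at 4 °C with 10% biotinylated, detergent-solubilized Sf9 membrane reagent and enriched with streptavidin microbeads before FACS. Low and high (top ~1%) gates were set on anti-HA fluorescence for expression and streptavidin fluorescence for reagent binding, and each polyreactivity label reflects the gate of origin.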

Row | Sequence | polyreactivity (PSR sort gate)
1 | QVQIVESGGGLVQAGGSLRLRCAASGSIFSTYAMGWYRQEPGKERELVADISGRVGSTYYADSVKGRFTISRDNAKNTVYLQMNSLKPEDTAVYYCAAALDFWPGYEYYYWGQGTQVTVSS | low polyreactivity
2 | QVQLVESGGGLVQAGGSLRLSCAASGNTFGAYAMGWYRQAPGKERELVAAITWSGGRTYYADSVKGRFTISRDNAKNTVYLQMNSLKPEDTAVYYCAADYGYYRGGVRFGYWGQGTQVTVSS | high polyreactivity
3 | QVQLVESGGGLVQAGGSLRLSCAASGRIFSIYAMGWYRQAPGKERELVAAISSRGGSTYYADSVKGRFTISRDNAKNTVYLQMNSLKPEDTAVYYCNAVSWEGYDFDYWGQGTQVTVSS | high polyreactivity
4 | QVQLVESGGGLDQAGGSLRLSCPASGRIFPINAMGRYRQAPGKERELVAAISYSRGSTYYADSVKGRFTISRDNAKNTVYLQMNSLKPEDTAVYYCNARYPYSYYHRYYYWGQGTQVSVSS | high polyreactivity
5 | QVQLVESGGGLVQAGGSLRLSCAASGRTFENYAMGWYRQAPGKERELVAAISKSGGSTYYADSVKGRFTISRDNAKNTVYLQMNSLKPEDTAVYYCNARPGQSGARFGYWGQGTQVTVSS | high polyreactivity
6 | QVQLVESGGGLVQAGGSLRLSCAASGGTFGLNAMGWYRQAPGKERELVAAITVTGGSDTYYADSVKGRFTISRDNAKNTVYLQMNSLKPEDTAVYYCAADIGKLYDYWGQGTQVTVSS | low polyreactivity
7 | QVQLVESGGGLVQAGGSLRLSCAASGSIFAYNAMGWYRQAPGKEREFVAAISQCGGRTYYADSVKGRFTISRDNAKTTVYLQMNSLKPEDTAVYYCATDGIRLTRHRDYDYWGQGTQVTVSS | low polyreactivity
8 | QDQLVESRGGLVQAGGSLRLSCAASGIIFGYYAMGWYRQAPGKERELVAAISRRGGSTYYADSVKGRFTISRDNAKNTVYLQMNSLKPEDTAVYYCAAVELRLSTPDMESWGQGTQVTVSS | high polyreactivity
9 | QVQLVESGGGLVQAGGSLRLSCAASGRILYKYAMGWYRQAPGKERELVAAISWRGTTTYYADSVKGRFTISRDNAKNTVYLQMNSLKPEDTAVYYGAIDRSYGYFSRPVSQYDYWGQGTQVTVSS | high polyreactivity
10 | QVQLVESGGGLVQAGGSLRLSCAASGRTFRVYTMGWYRQAPGKERELVAAISSRGGSTYYADSVKGRFTISRDNAKNTVYLQMNSLKPEDTAVYYCAAVSYYPARYGYWGQGTQVTVSS | high polyreactivity
11 | QVQLVESGGGLVQAGRSLRLSCAASGLTFSLYAMGWSRQAPGKERELVAANSWTGGSTYYADSVKGRFTISRDNAKNTVYLQMNSLKPEDTAVYYCNARYTLFARYGYDYWGQGTQVTVSS | low polyreactivity
12 | QVQLVESGGGLVQAGGSLRLSCAASGRIFNLYVMGWYRQAPGKERELVATISSGGSTNYADSVKGRFTISRDYAKNTVYLQMNSLKPEDTAVNYCAKPYIVYYTMDYWGQGTQVTVSS | low polyreactivity
13 | QVQLVESGGGLVQAGGSLRLSCAASGRIYASYVMGWYRQAPGKERELVAAISYGGSRTYYADSVKGRFTISRDNAKNTVYLQMNSLKPEDTAVYYCAAKKYTNRGYYYWGQGTQVTVSS | high polyreactivity
14 | QVQHVESGGGLVQAGGSLRLSCAASGLIFPRYAMGLYRQAPGKERELVAAINWRGGITYYADSVKGRFTISRDNAKNTVYLQMNSLKPEDTAVYYCAAAVKHVAYHYNYWGQGTQVTVSS | high polyreactivity
15 | QVQLVESGGGLVQAGGSLRLSCAASGRTFSPYAMGWYRQAPGKERDLVAAINGGGGTTYYADSVKGRFTISRDNAKNTVYLQMNSLKPEDTAVYYCAAGYNYTSYADLDYWGQGTQVTVSS | low polyreactivity
16 | QVQLVESGGGLVQAGGSLRLSCAASGRTIRWNAMGWYRPAPGKERELVAAITSRGGSTYYADSVKGRFTISRDNAKNTVYLQMNSLKPEDTAVYYCAARRRSAQSGSYNHWGQGTQVTVSS | high polyreactivity
17 | QVQLVESGGGLVQAGGSLRLSCAASGRIFPYYAMGWYRQAPGKERELVASIRYSAVNTYYADSVKGRFTISRDNAKNTVYVQMNSLKPEDTAVYYCWYTQNTLGNYWGQGTQVTVSS | low polyreactivity
18 | QVQLVESGGGLVQAGGSLRLSCAASGSTFSYNAMGWYRQAPGKERELVAAIDANGGSTYYADSVKGRFTISRDNAKNTVYVQMNSLKPEDTAVYYCAAAGYWYYYVPNDSWGQGTQVTVSS | low polyreactivity
19 | QVQLVESGGGLVQAGGSLRLSCAASGSTFQVYGMGWYRQAPGKERELVAAISRSGGRTYYADSVKGRFTISRDNAKNTVYLQMNSLKPEDTAVYYCAKTYQTTTSKSGYYYWGQGTQVTVSS | high polyreactivity
20 | QVHLVESGGGLVQARGSLRLSCAASGRIFRYYVMGWYRQAPGIERELVAAITSGTSTNYADSVKGRFTISRDNAKNTVYLQMTSLKPEDTAVYYCAVRSPRGGRTRFNSNYWGQGTQVTVSS | high polyreactivity
21 | QVQLVESGGGLVQAGGSLRLSCAASGFIFPLYTMGWYRQAPGKERELVAAITCSGGSTYYADSVKGGFTISRDNAKNTVYLQMNSLKPEDTAVYYCAKDYTYGMDWGQGTQVTVSS | low polyreactivity

Row | Sequence | polyreactivity (PSR sort gate)
22 | QVQLVESGGGLVQAGGSLRLSCPASGSTFQYNPLGWYRQAPGKERELVAAISRRGGSTYYADSVKGRFTISRDNAKNTVYLQMNSLKPEDTAVYYCAVSAYKGYDYWGQGTQVTVSS | high polyreactivity
23 | QVQLVESGGGLVQAGGSLRLSCAASGYIFSKYALGWYRQAPGKERELVASITGRGSRTYYADSVKGRFTISRDNAKNTVYLQMNSLKAEDTAVYYCAADWYGQKTSNRWYFRPGYVYWGQGTQVTVSS | high polyreactivity
24 | QVQLVESGGGLVQAGGSLRLSCAASGRTFHGYAMGWYRQAPGNEREFVAAISSDGDSTYYADSVKGRFTISRDNAKNTVYLQMNSLKPEDTAVYYCAAERGYHGGGSGLYDYWGQGTQVTVSS | low polyreactivity
25 | QVQLVESGGGLVQAGGSLRLSCAASGFIFPRNAMGWYRPAPGKERELVAAISRSGGRTYYADSVKGRFTISRDNAKNTVYLQMNSLKPEDTAVYYCNADLALRSRYGEYDYWGQGTQVTVSS | high polyreactivity
26 | QVQLVESGGGLVQAGGSLRLSCAASGRAFYGNAMGWYRPAPGKERELVASISQRGGSTYYADSVKGRFTISRDTAKNTVYLQMNSLKPEDTAVYYCAARRKGYSTGLGHRISYDYWGQGTQVTVSS | high polyreactivity
27 | QVQLVESGGGLVQAGGSLRLSCAASGRIFYGYAMGWYRQAPGNERELVAAISSSGGSTYYADSVKGRFTISRDNAKYTVYLQMNSLKPDDTAVYYCNAQLYRPGYWYDYWGQGTQVTVSS | high polyreactivity
28 | QVQLVESGGGLVEAGGSLRLSCAASGYIFGSYAMGWYRHAPGKERELVASISKSGGSTYYADSVKGRFTISRDNAKNTVYLQMNSLKPEDTAVYYCAAAGIGGGGWGQGTQVTVSS | low polyreactivity
29 | QVQLVESGGGLVQAGGSLRLSCAASGSIFALNVMGWYRQAPGKEREFVAAISVRSGSTYYADSVKGRFTISRDNAKNTVYLQMNSLKPEDTAVYYCAARTSRFWRGGGLDYWGQGTQVTVSS | high polyreactivity
30 | QVQLVESGGGLVQAGGSLRLSCAASGRIFKGYVMGWYRQAPGKERELVAAISKSGGRTYYADPVKGRFTISRDNAKNTVYLQMNSLKPEDTAVYYCNAVGVVTYSFYYWGQGTQVTVSS | high polyreactivity
31 | QVQLVESGGGLVQAGGSLRLSCAASGRIFRSYAMGWYRQAPGKDRELVAAISSGDTTNYADSVKGRFTISRDNAKNTVYLQMNSLKPEDTAVYYCAAGFYYRGGYIQYEMNYWGQGTQVTVSS | high polyreactivity
32 | QVQLVESGGGLVQAGGSLRLSCAASGITFYLNAMGWYRQAPGKERELVADITVSGGSTYYADSVKGRFTISRDTAKNTVYLQMNSLIPEDTAVYYCAADLTISYSQEYYYWGQGTQVTVSS | low polyreactivity
33 | QVQLVESGGGLVQAGGSLRLSCSASGRIFSVYAMGWYRQAPGKERELVAAITWRGGSTYYADSVKGRFTISRDNAKNTVYLQMNSLKPEDTAVYYCAAVESGYGSKRFYYWGQGTQVTVSS | high polyreactivity
34 | QVQLVQSGGGLVQAGGSLRLSCAAYGSTFVRYVKGWYRQAPGKERELVAAISRRGGSTYYADSVKGRFRISRDNAKNTVFLQMNSLKPEDTAVSYCARTVGYRTLLESDSWGQGTQVTVSS | high polyreactivity
35 | QVQLVESGGRLVQAGGSLRLSCAASGIIFPYYAMGWYRPAPGTVRELVAGISSSGGITYADSVKGRYTISRDNAKNTVYLPMNSLKPEDTAVYYCNAEYQWLEYDYWGQGTQVTVSS | low polyreactivity
36 | QVQLVESGGGLVQAGGSLRLSCAASGFTFSEYAMGWYRQAPGKERELVAAISQRGGSTYYADSVKGRFTISRDNAKNTVYLQMNSLKPEDTAVYYCAADSARYYGAKRFGYWGQGTQVTVSS | high polyreactivity
37 | QVQLVESGGGLVQAGRSLRLSCAASGITFGRNTMGWYRQAPGKERELVAAIDSGGNTYADSVKGRFTISRDNAKNTVYLQMNSLKPEDTAVYYCAVDGGEFSSYGYWGQGTQVTVSS | low polyreactivity
38 | QVQLVESGGGLVQAGGSLRLSCAASGSTFGEYAMGWYRQAPGKERELVAGITSGGSTNYADSVKGRFTISRDNAKNTVYLQMNSLKPEDTAVYYCNARFYGSVDYWGLGTQVTVSS | low polyreactivity
39 | QVQLVESGGRLVQAGGSLRLSCAASGSIFTPYAMGCYIQAPGKERELVAAIRSVVRTNYADSVKGRFTISRDNAKNTVYLQLNSLNPEDTAVYYCATAVYPDFEYDSWGQGTQVTVSS | low polyreactivity
40 | QVQLVESGGGLVQAGVSLRLSCAASGRILHGYAMGWYRQAPGKEREFVAAITSSGGRTYYADSVKGRFTISRDNAKNTVYLQMNSLKPDDTAVYYCAADRPAYRTGDSKYDYWGLGTQVTVSS | low polyreactivity
41 | QVQHVESAGGLVQAGGSLRLSCAASGSTFSDYAMGRYRQAPGKERELVAAISRSGGSTYYADSVKGRFTISRDNAKNTVYLQMNSLKPEDTAVYYCAASRATLLRYGYWGQGTQVTVSS | low polyreactivity
